Read-outs that look alike come from different tables or passages of the source.

The record followed here is paper PMC10715038.

Holding throughout (assay): SPR
On the technique in general: Surface plasmon resonance follows binding to a sensor surface in real time, without labels.

The target in assay [1] is Pangolin ACE2-huFc (soluble pangolin ACE2 ectodomain, human IgG1 Fc fusion) (pangolin (Manis javanica)).
Assay [2] concerns the target Horse ACE2-huFc (soluble horse ACE2 ectodomain, human IgG1 Fc fusion) (horse (Equus caballus)) (UniProt F6V9L3).
Assay [3] has the same target. This is another data set of the same source.

By Kd is commonly meant the equilibrium constant for the complex coming apart. High values mean weaker binding, low ones tighter binding. With “SARS-CoV-2 WHU01 Spike RBD, monomeric (from UniProt P0DTC2) (domain or fragment)”, the Kd in assay [1] was found to be 67.1 nM; in assay [2], 89.8 nM; in assay [3] it was 67.4 nM.
